Test results as given in publication doi:10.1101/2021.09.30.462597 (bioRxiv, 2021).
Residue numbers refer to the chain shown, from its start. Numbers in names are those of the source. Like-named read-outs stand apart in the source and are kept apart here.

T1: Gli2-ZF-GFP (human, UniProt P10070 418-604)
T1 sequence (looked up): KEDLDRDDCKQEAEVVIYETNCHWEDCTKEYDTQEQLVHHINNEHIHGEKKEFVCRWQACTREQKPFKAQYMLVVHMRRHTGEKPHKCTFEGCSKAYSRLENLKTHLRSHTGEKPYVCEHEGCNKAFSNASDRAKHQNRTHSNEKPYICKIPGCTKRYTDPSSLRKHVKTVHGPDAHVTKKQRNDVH

T2: Gli2-ZF, zinc-finger domain of Gli2 (recombinant) (human, UniProt P10070 418-604)
T2 sequence (looked up): T1 sequence (looked up)

B1: Kif7-CC-GFP (domain or fragment, human, UniProt Q2M1P5 460-600, looked up)
chain: PDSGIESASVEDQAAQGAGGRKEDEGAQQLLTLQNQVARLEEENRDFLAALEDAMEQYKLQSDRLREQQEEMVELRLRLELVRPGWGGPRLLNGLPPGSFVPRPHTAPLGGAHAHVLGMVPPACLPGDEVGSEQRGEQVTN
B2: GST-Kif7-CC (460-600aa) (domain or fragment, human, UniProt Q2M1P5 460-600, looked up)
chain: B1 chain
B3: GFP-tagged GST-Kif7-CC (domain or fragment, human, UniProt Q2M1P5 460-600, looked up)
chain: B1 chain
B4: GST-Kif7-CC D505A (domain or fragment, human, UniProt Q2M1P5 460-600, looked up)
chain: B1 chain with D46A
B5: Gli2-ZF-SNAP (domain or fragment, human, UniProt P10070 418-604, looked up)
chain: T1 sequence (looked up)
modifications: Alexa-647 label (in the TIRF assays)
B6: Kif7-DM-GFP (1-543aa), dimeric Kif7 protein (domain or fragment, human, UniProt Q2M1P5 1-543, looked up)
chain: MGLEAQRLPGAEEAPVRVALRVRPLLPKELLHGHQSCLQVEPGLGRVTLGRDRHFGFHVVLAEDAGQEAVYQACVQPLLEAFFEGFNATVFAYGQTGSGKTYTMGEASVASLLEDEQGIVPRAMAEAFKLIDENDLLDCLVHVSYLEVYKEEFRDLLEVGTASRDIQLREDERGNVVLCGVKEVDVEGLDEVLSLLEMGNAARHTGATHLNHLSSRSHTVFTVTLEQRGRAPSRLPRPAPGQLLVSKFHFVDLAGSERVLKTGSTGERLKESIQINSSLLALGNVISALGDPQRRGSHIPYRDSKITRILKDSLGGNAKTVMIACVSPSSSDFDETLNTLNYASRAQNIRNRATVNWRPEAERPPEETASGARGPPRHRSETRIIHRGRRAPGPATASAAAAMRLGAECARYRACTDAAYSLLRELQAEPGLPGAAARKVRDWLCAVEGERSALSSASGPDSGIESASVEDQAAQGAGGRKEDEGAQQLLTLQNQVARLEEENRDFLAALEDAMEQYKLQSDRLREQQEEMVELRLRLELVRP
B7: Kif7-DM(E502A)-GFP (domain or fragment, human, UniProt Q2M1P5 1-543, looked up)
chain: B6 chain with E502A
B8: GST-Kif7-SCC (481-543aa) (domain or fragment, human, UniProt Q2M1P5 481-543, looked up)
chain: KEDEGAQQLLTLQNQVARLEEENRDFLAALEDAMEQYKLQSDRLREQQEEMVELRLRLELVRP

Columns and labels:
[1] = biological target: Kif7M-Kif27CC chimera (GFP) (human); assay: SEC
[2] = biological target: Kif27M-Kif7CC chimera (GFP) (human); assay: SEC
Gli2-ZF-GFP = biological target: T1, Gli2-ZF-GFP; assay: SEC
[3] = biological target: T2, Gli2-ZF, zinc-finger domain of Gli2 …; assay: BLI
[4] = biological target: the molecule itself; assay: single molecule fluorescence intensity and photobleaching analysis
[5] = biological target: B6; assay: TIRF microscopy of proteins on immobilised microtubules
Kif7-DM(E502A)-GFP = biological target: B7; assay: as above
[6] = biological target: GDP-taxol stabilized microtubules from bovine tubulin (co-sedimentation) (bovine) (UniProt Q6B856); assay: co-sedimentation
[7] = biological target: GDP-taxol stabilized microtubules from bovine tubulin (co-sedimentation) (bovine) (UniProt Q6B856); assay: co-sedimentation; remark: listed apart in the source
SEC = biological target: the molecule itself; assay: SEC

Molecule Kif7M-Kif27CC chimera (GFP) has a stoichiometry N [1] of 2.

For Kif27M-Kif7CC chimera (GFP), the stoichiometry N [2] was 2.

With B1 the “stoichiometry N” value (Gli2-ZF-GFP) was 2 Kif7-CC-GFP per Gli2-ZF-GFP.

B2 was tested, and the Kd [3] was 48 ± 5 nM.

B3 was tested, and the “stoichiometry N” value [4] was 2.

B4: binds [3].

B5 was tested, and the “fold above the background fluorescence of Gli alone on microtubules” value [5] was ~3 fold and the binding result (Kif7-DM(E502A)-GFP) was “binds”.

For B6, the Kd [6] was 4230 nM, the Kd [7] was 540 nM and the “stoichiometry N” value (Gli2-ZF-GFP) was 1 Kif7-DM per Gli2-ZF.

B7 was tested, and the “stoichiometry N” value (SEC) was 2.

In the case of B8, the Kd [3] is reported as 69 ± 20 nM.
